Source: the supplement of paper PMC12764529
± gives the half width of the 95% confidence interval.

Columns and labels:
[1] = folding stability dG unfold from chymotrypsin proteolysis; higher = more stable
Summary of the method: (§1)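 Digests were run with trypsin and chymotrypsin at 11 concentrations in threefold dilutions, plus a no-protease condition, on designed mini-proteins in a PA-tagged cDNA display construct. The mini-proteins were under 80 residues, had no cysteine, and were kept only when AlphaFold2 dimer inter-PAE was above 15. After sequencing, Bayesian fitting of the counts gave K50, from which unfolding free energy was derived against a sequence-predicted unfolded-state K50 and a shared folded-state K50, per protease or combined.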

[2] = folding stability dG unfold from trypsin proteolysis; higher = more stable
Summary of the method: as §1

[3] = folding stability dG unfold (combined trypsin and chymotrypsin); higher = more stable
Summary of the method: as §1

Sequence | folding stability dG unfold [1] | folding stability dG unfold [2] | folding stability dG unfold [3]
SAGGSAPETLTIKVKNADGSTQTITLPAGATATSIEFNEDTGELTIHLEETGETITLPADEITEITSAGGSA [r15_133_TrROS_Hall] | 1.33 ± 0.026 kcal/mol | 1.39 ± 0.12 kcal/mol | 1.4 ± 0.11 kcal/mol
SAGGSAPIKIKTADGKTITVNAKDLSLELLKKADKVIITKPDGKKIELPAGAKIKKGDTVTIKIVKSAGGSA [r15_733_TrROS_Hall] | -0.437 ± 0.21 kcal/mol | 0.153 ± 0.11 kcal/mol | -0.336 ± 0.33 kcal/mol
SAGGKKVKVEKVATFELEDGSKITITTVTLPNGEKLVLIEITNPNGEKKTIVVSYEDLKEVLEALKKSAGGS [r16_588_TrROS_Hall] | 2.7 ± 0.16 kcal/mol | 2.51 ± 0.086 kcal/mol | 2.65 ± 0.28 kcal/mol
SAGGSAGGSGSMKEIEIEIPKDDPQLIEKIKEELKQKNSKKVEVKEIKKTPEGKYKVKIIIEESAGGSAGGS [r12_91_JUSTAS] | 0.901 ± 0.081 kcal/mol | 1.03 ± 0.1 kcal/mol | 0.879 ± 0.17 kcal/mol
SAGGSDTLKKLFPGVKEIEIEVEPYWVPMPPEMAKDNPEAPGQTFPVPRVKITIKIELPRDPDGKLSAGGSA [r2_404_TrROS] | 0.324 ± 0.18 kcal/mol | 1.09 ± 0.065 kcal/mol | 0.772 ± 0.12 kcal/mol
SAGYVEPYEDGMVKIDSTFFLNDWVFKVDWWIMPNGNIMISIEPIEPIPPPPPVPIDADDPEQKEEAQQSAG [r5_715_TrROS] | 2.69 ± 0.069 kcal/mol | 1.69 ± 0.18 kcal/mol | 2.41 ± 0.23 kcal/mol
SKKKKKLTAEEIAKKLEEKLKEEFGIEEIKITKIEFDKETKEITITMEITYKKKKNEKITITKKIKVEDLSA [r9_1002_TrROS_Hall] | 2.5 ± 0.12 kcal/mol | 2.08 ± 0.24 kcal/mol | 2.28 ± 0.63 kcal/mol
SAGGMLKIKVELFYPDGSTRTLPVPEEIQKEIVEALKKGEKIPEKPKKELEDIAKKEGYTIKIIELLSAGGS [r8_159_JUSTAS] | 1.41 ± 0.11 kcal/mol | 0.751 ± 0.051 kcal/mol | 1.3 ± 0.18 kcal/mol
SAGGSAGGSAGGMGINVTVSEEVSVLPDPSVVRVTTTTKTPDGTTTVTEEVIPGPEELESAGGSAGGSAGGS [r10_1221_JUSTAS] | 1.47 ± 0.099 kcal/mol | -0.15 ± 0.045 kcal/mol | 1.2 ± 0.075 kcal/mol
SAGGSAKFKIVKIEKIEIEENGTIKIKVKLEDGSTFEIEIKVKIIPPPKPKKISLEELSEEERKKLSAGGSA [r15_41_TrROS_Hall] | 2.11 ± 0.097 kcal/mol | 1.29 ± 0.053 kcal/mol | 1.8 ± 0.13 kcal/mol
SAGDIGRVEARPVPLPGDRPGRVVVVESSVPNLRVLLFRGPEDRWVALVETDGRVEELPLEEALRLLASSAG [r5_157_TrMRF] | 2.717 ± 0.021 kcal/mol | 1.69 ± 0.043 kcal/mol | 2.39 ± 0.076 kcal/mol
SAGGSALDPGKPVRVTVNLRVYRPLPDGTVKTFPSATVDLPVEEVLDLAKALPKEYTVTVDSIVVDSAGGSA [r15_833_TrMRF] | 0.663 ± 0.17 kcal/mol | 0.249 ± 0.14 kcal/mol | 0.513 ± 0.18 kcal/mol
SAGGSAGGSAGGSVWIMIPLEEIKDLLPPGWTVEVEPQPMPNNGYIMVPVEIVPPDNAKSAGGSAGGSAGGS [r4_119_TrROS] | 0.861 ± 0.13 kcal/mol | 0.0715 ± 0.047 kcal/mol | 0.552 ± 0.16 kcal/mol
SAGGKVVPILIEGELTAEEIKALIPPGELAVLYDLETGEVRVFSPEDLDKIPSDVPLRFLLLIFRPDSAGGS [r8_66_TrMRF] | 4.31 ± 0.058 kcal/mol | 2.93 ± 0.051 kcal/mol | 3.92 ± 0.11 kcal/mol
SAGEIKIKVEEVDPEKPYVRVTIEIKLEPGQSIEEALKKLLKPGVEEAKIVKVEEENGYLKIEILVRRKSAG [r5_227_TrROS_Hall] | 4.54 ± 0.28 kcal/mol | 3.22 ± 0.14 kcal/mol | 4.01 ± 0.27 kcal/mol
SPVVLPLTLGDRPILARLYPGEGVLEVRDPDGRLVGRATVTPNRINLVFRALDDDTTLVFELPVLPPDDPSA [r9_963_TrMRF] | 1.82 ± 0.045 kcal/mol | 1.66 ± 0.07 kcal/mol | 1.84 ± 0.12 kcal/mol
SAGGSAGGEELLATATPVTVGDEVYYRFTIRNPDGTPIGDRLVPASVLSGYSPDTVITLPPDLLSAGGSAGG [r6_34_JUSTAS] | 0.784 ± 0.16 kcal/mol | 1.29 ± 0.024 kcal/mol | 1.04 ± 0.094 kcal/mol
SAGGSAKKPKIKIKIKITNENGEKIEIEIEAETEEEALEAAKKLAEELAKKPNIKEVKIEITEIEPSAGGSA [r15_698_TrROS_Hall] | 2.19 ± 0.1 kcal/mol | 1.74 ± 0.067 kcal/mol | 2.07 ± 0.096 kcal/mol
SAGGMIKPGEKVKVRAVLRVGEEEEEIELELPLPENATVEDIAQAILDLIPEEPRKDAEVDIEVEPVSAGGS [r16_321_TrMRF] | 1.21 ± 0.094 kcal/mol | -0.468 ± 0.3 kcal/mol | 0.93 ± 0.14 kcal/mol
SAGGMKIKAEDIVSVEVTYNEETNELTVKVTVRINGKEVTLTFPEGMSEEELKRLLEELIKKGELEIESAGG [r13_225_TrROS_Hall] | 2.96 ± 0.1 kcal/mol | 2.19 ± 0.12 kcal/mol | 2.78 ± 0.11 kcal/mol
SAGGSVTKEELEKLNVEEVAALLPEDYTVTVVPGTGVVVISAPDRTLTITHDPATGKVTLTSEVEVSAGGSA [r2_470_JUSTAS] | 0.125 ± 0.21 kcal/mol | 1.41 ± 0.1 kcal/mol | 0.797 ± 0.15 kcal/mol

Sequence | folding stability dG unfold [1] | folding stability dG unfold [2] | folding stability dG unfold [3]
SSMPTTVTLTNPADSTTTPLPVPSNISVETTTLPDGSTAGTVTVTDPSTGKTTTITFSGPNTLTSTSATSSA [r9_467_JUSTAS] | 0.398 ± 0.26 kcal/mol | 1.05 ± 0.03 kcal/mol | 0.804 ± 0.13 kcal/mol
SAGGMVKLTITITTENETTTYPRVVPEEELEEVKKEAEELAKKLGADPKTVTVSKVERLKEPGGVPVSAGGS [r16_650_JUSTAS] | 0.901 ± 0.033 kcal/mol | 0.694 ± 0.029 kcal/mol | 0.856 ± 0.061 kcal/mol
SAGGGPAPVVVTVEYDPETREQRVTARAGGGGVVFELSLPLGDKTVTVKVIPVGDKVLLEVEWEVKGSAGGS [r16_631_TrMRF] | 3.06 ± 0.13 kcal/mol | 2.95 ± 0.16 kcal/mol | 2.91 ± 0.15 kcal/mol
SAGGSAGGMLEITVPSRREPDSLEVEITITDPSSNTTTTLRRRFPPGDETSPEEIAEKIAAELSSAGGSAGG [r6_234_JUSTAS] | 0.332 ± 0.23 kcal/mol | 0.677 ± 0.13 kcal/mol | 0.505 ± 0.28 kcal/mol
SAGGSKPIRVEIAVPPDVPLEELARRVEEELRELGFEVEVEEVSFLPEEGRVLLRFRDGAVAVIPNSAGGSA [r2_242_TrMRF] | 1.85 ± 0.062 kcal/mol | 1.8 ± 0.022 kcal/mol | 1.86 ± 0.068 kcal/mol
SPPIEIKPAPENYLIAKIIDPKTNKVYYILIPKDAKLDQPALVYHPDKKEYIPLKEILDLLKKGYPLSISSA [r9_250_TrMRF] | 2.43 ± 0.059 kcal/mol | 2.09 ± 0.075 kcal/mol | 2.35 ± 0.14 kcal/mol
SSPVSFSTSTTSPPSPSSLPDGSTLSTTTTTYTAPDGSRYTVTSTTLTPPTGPATPVSTTTTSTGSSGPSSA [r9_394_JUSTAS] | 1.08 ± 0.043 kcal/mol | 0.514 ± 0.018 kcal/mol | 0.872 ± 0.046 kcal/mol
SAGGSAGGKNNETRRDPNNGNTYTRTGGKWEMEPVPPPIEIVPWPIWDPNGQDLELMWRVSINLSAGGSAGG [r6_313_TrROS] | 0.497 ± 0.49 kcal/mol | 1.06 ± 0.2 kcal/mol | 0.838 ± 0.33 kcal/mol
SAGKPKELAKKIAEKLAKEFEKKHPDVKIEKVEVKKIEVNPIEGYVKIDIVMYGKNGKLIYKPKITIKSAGG [r19_53_TrMRF] | 3.96 ± 0.083 kcal/mol | 3.22 ± 0.27 kcal/mol | 3.63 ± 0.14 kcal/mol
SAGGSAGGSAGNTIEIEINGKPIYVEFEPLPEGMVKVKIYFPDGKKEEITLPANDPIKIGSAGGSAGGSAGG [r11_525_TrROS] | 1.6 ± 0.045 kcal/mol | 1.53 ± 0.068 kcal/mol | 1.58 ± 0.13 kcal/mol
SAMKNMTPEEVAKLIEEEIRKLYPNAEVKVEVLDAPEDYLVLKVHVTVIEPEEEGEIREFPFLVVIDLSSAG [r14_187_TrMRF] | 3.31 ± 0.062 kcal/mol | 3.47 ± 0.15 kcal/mol | 3.33 ± 0.09 kcal/mol
SAGGSAGGMPPELSEEEVVRRAVERAVRELGVPLEELPPDWRVDARVERVGDEWLVEVDIELPASAGGSAGG [r6_740_TrMRF] | 1.68 ± 0.074 kcal/mol | 1.33 ± 0.037 kcal/mol | 1.57 ± 0.083 kcal/mol
SAGGSASVKIEVTVSPEQPDLTEEEAKAALTLTLPDGRPVKVEVLEVKPVPGSTVLLVEVEENVLLSAGGSA [r15_331_JUSTAS] | 0.487 ± 0.073 kcal/mol | 1.64 ± 0.061 kcal/mol | 1.13 ± 0.079 kcal/mol
SAGGLVLPPDAVVTGTLTAPRPDGSTVTVRARVRFPPRPPPPPLVLVRLPDGSVRPVRSLEEARRLASAGGS [r16_580_TrMRF] | 3.76 ± 0.059 kcal/mol | 3.16 ± 0.11 kcal/mol | 3.49 ± 0.1 kcal/mol
SAGGNIEVDNDMIEIPFPGGFTIMIRLPPDKGKVTVHIERDPNNPMFREFAKEIADQLPGLPVEVHPWSAGG [r13_34_TrROS] | 0.414 ± 0.14 kcal/mol | 0.996 ± 0.11 kcal/mol | 0.752 ± 0.08 kcal/mol
SAGGSAGGSAGGFNIKLDVEIDPENYVIKNKLEVRDGGEERRFEMWIPIRVPPADPDDPSAGGSAGGSAGGS [r10_1049_TrROS] | 1.39 ± 0.27 kcal/mol | -0.135 ± 0.29 kcal/mol | 0.852 ± 0.21 kcal/mol
SAGGSADLPPEVGSVTYSQNVPLDEIDEFIQEVIEKLGISPEEIKEIKVSRKTVPGSGVVSLTIVLSAGGSA [r15_934_JUSTAS] | 1.18 ± 0.072 kcal/mol | 1.46 ± 0.061 kcal/mol | 1.34 ± 0.13 kcal/mol
SAGGSAGGSAGMPLKVTVLSTSPLLESSELVTVKITPPDGSVVVIPSSVSLEEVEKLLLSSAGGSAGGSAGG [r17_353_JUSTAS] | 0.05 ± 0.07 kcal/mol | 0.784 ± 0.024 kcal/mol | 0.558 ± 0.051 kcal/mol
SAGGSAGGSAGMNPVVIETTETLPNGTVVRTTEIVDPSNPDKVVSTKTEISSVPSNAPLLSAGGSAGGSAGG [r17_299_JUSTAS] | 0.113 ± 0.043 kcal/mol | 0.342 ± 0.082 kcal/mol | 0.222 ± 0.11 kcal/mol
SAGGSAGGSAPPLKIVIRIEFPDPNGKKQEYEIPADYPLEQVKDNAEEPFPGAKIENIEVVSAGGSAGGSAG [r3_60_TrROS] | 1.33 ± 0.071 kcal/mol | 1.02 ± 0.057 kcal/mol | 1.21 ± 0.049 kcal/mol
SAGGSAGGMKITVEEVKVEKKEDGSYRVRIRLKNGEVLELEFESLEEALAAAKKLGAEITEIEPSAGGSAGG [r6_84_TrROS_Hall] | 3.54 ± 0.038 kcal/mol | 3.12 ± 0.058 kcal/mol | 3.35 ± 0.04 kcal/mol
